According to US20260042831A1, “METHODS OF TREATING SARCOIDOSIS WITH A TNF-A ANTIBODY AND ASSOCIATED COMPOSITIONS AND METHODS” (XENTRIA, INC., priority 2022, published 2026):

Target: FcγRIIb (UniProt P31994)
Test: Octet QK384, FcγRIIb on Ni-NTA biosensors, 6 XTMAB-16 concentrations, 1:2 heterogeneous ligand model fit

Chain of FcγRIIb (P31994 43-217): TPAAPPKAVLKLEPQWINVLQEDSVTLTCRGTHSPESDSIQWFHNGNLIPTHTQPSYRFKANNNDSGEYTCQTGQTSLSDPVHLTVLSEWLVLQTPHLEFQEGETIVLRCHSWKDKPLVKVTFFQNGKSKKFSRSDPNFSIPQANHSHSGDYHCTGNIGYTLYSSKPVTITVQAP

Substance: XTMAB-16 (antibody)
- Kd: 640 nM
